Data published in US20100158890A1, “USE OF THROMBIN MUTANTS TO INHIBIT THE ANTICOAGULATION EFFECT OF THROMBIN INHIBITORS” (priority 2006, published 2010).

What was measured:
whole blood = assay: Thrombelastography (TEG) of clot formation in recalcified whole blood; assay type: biochemical, human; conditions: for effect on TEG amplitude (strength of clot): anticoagulant alone: bivalirudin 5 μg/ml, lepirudin 1 μg/ml, argatroban 0.5 μg/ml
Procedure: (§1) For plasma collection, whole blood samples (5 ml, in 3.2% trisodium citrate) were obtained after institutional approval and informed written consent from 6 volunteers that had not received any medication in the preceding 2 weeks. For APTT and thrombin generation experiments blood was centrifuged to obtain platelet poor plasma (PPP) for 20 min at 3000×g. PPP was used immediately or stored for not more than a couple of days at −20° C. For TEG® measurements, whole blood in citrate was used after recalcification within 5 min from collection. In all experiments, the final concentration of recombinant thrombin mutant was 5 μg/ml.
The viscoelastic measurement of clot formation was evaluated using Thrombelastogarphy (TEG®, Haemoscope, Niles, Ill.). […] For TEG® measurements, 360 μl aliquots of the samples were transferred to disposable cups containing […] 0.4 M CaCl2. Effects of W215A/E217A on TEG® variables were evaluated after adding this thrombin mutant (5 μg/ml, final concentration) to respective samples. The TEG® variables, the reaction time (in minutes) which represents the onset of clot formation, and maximum amplitude (in mm) which reflects the strength of clot were compared for different groups (Kawasaki et al. (2004) Anesthesia & Analgesia, 99:1440-1444).

platelet-poor plasma = assay: Thrombin generation monitoring by Thrombinoscope in platelet-poor plasma; assay type: biochemical, human; conditions: for effect on onset and peak of thrombin generation: anticoagulant alone in plasma
Procedure: Fluorogenic substrate (Z-Gly-Gly-Arg-AMC HCl, molecular weight 616.07) for thrombin generation assay was obtained from Bachem (Switzerland). HEPES (N-2-hydroxyethyl piperazine-N′-2-ethanesulfonic acid), CaCl2, BSA (bovine serum albumin) and DMSO (dimethyl sulfoxide) were from Sigma (Sigma, St Louis, Mo.). Tissue factor was dissolved in 10 ml sterile water and then further diluted with working HEPES buffer (20 mM HEPES, 140 mM NaCl, 5 mg/ml BSA), (1:75). For the preparation of Fluca-buffer 1.75 ml HEPES buffer (pH 7.35, 20 mM HEPES, 60 mg/ml BSA was added to 0.2 ml of 1 M CaCl2 in a glass test tube, mixed, and warmed up for few minutes at 37° C. Just before use 50 μl of 100 mM fluorogenic substrate made in DMSO was added to the HEPES-CaCl2 solution and mixed to dissolve. This buffer now contains 2.5 mM substrate and 100 mM CaCl2.
as §1
In order to evaluate this complex regulation of thrombin generation, the Thrombinoscope® system, which enables automated acquisition of thrombin generation time courses in platelet-rich plasma or in platelet-poor plasma (Hemker et al. (2003) Pathophysiology of Haemostasis & Thrombosis, 33:4-15). The method for the automated estimation of endogenous thrombin potential using a commercially available fluorogenic substrate (Z-GlyGly-Arg-AMC) has been described in detail elsewhere (Hemker et al. (2003) Pathophysiology of Haemostasis & Thrombosis, 33:4-15). Briefly, for the thrombin generation experiments, 80 μl of PPP, and 20 μl of the thrombin generation trigger are added to wells of 96-well microtiter plate (Microfluor2, Labsystems, Finland), followed by 20 μl of substrate-calcium chloride buffer. The reaction is monitored using microplate fluorometer (Fluoroskan Ascent, Labsystems, Finland) set at 390 nm (excitation wavelength) and 460 nm (emission wavelength). […] Additionally, heparin (0.2 or 0.5 U/ml) was also evaluated. Heparin reversal with an appropriate concentration of protamine was used for comparison (1 mg of protamine for each 100 units (1 mg) of heparin). To evaluate the effects of the thrombin mutant on protein C activation (Regnault et al. (2003) Thrombosis and Haemostasis, 89:208-212), soluble thrombomodulin (0.75 μg/ml, final concentration) was added to the sample plasma containing the thrombin mutant.

[1] = off-pump coronary surgery, cited from earlier work
α-thrombin = α-thrombin (Homo sapiens, UniProt P00734); conditions: association constant for α-thrombin and inhibitor; cited from earlier work
[2] = tested on: lepirudin (Refludan, Berlex)
[3] = tested on: bivalirudin (Angiomax, Medicines Company)

Row | Molecule | effect on TEG amplitude (strength of clot) (whole blood) | effect on onset and peak of thrombin generation (platelet-poor plasma) | kon (α-thrombin) | activated partial thromboplastin time (APTT) in lepirudin-treated plasma [2] | activated partial thromboplastin time (APTT) in bivalirudin-treated plasma [3] | other results
1 | CC1CNc2c(cccc2S(=O)(=O)N[C@@H](CCCNC(=N)N)C(=O)N2CC[C@@H](C)C[C@@H]2C(=O)O)C1 (stereo partly drawn) [Argatroban, argatroban] | reduced | prolonged the onset and reduced the peak |  |  |  | peak thrombin level (platelet-poor plasma; argatroban at 0.5 and 1 μg/ml, with W215A/E217A added (FIG. 6D)): > 100 nM
2 | Protamine sulfate |  |  |  |  |  | reversal of heparin on TEG (onset, clot strength) (whole blood; protamine sulfate 5 μg/ml, heparin 0.5 U/ml): restores the onset completely, and to a lesser extent clot strength; effect on thrombin generation in the presence of heparin (platelet-poor plasma; heparin 0.2 U/ml, W215A/E217A 5 μg/ml or protamine sulfate 2 μg/ml): reversed the peak level
3 | bivalirudin | minimally affected | prolonged the onset of thrombin generation, but not the peak level | 430 10^6 M^−1s^−1 |  |  | range of blood loss ([1]; n=50): 320-4,909 ml; 12-hour post-operative chest tube drainage, median [1]: 793 mL
4 | catalytic-site blocked thrombin (thrombin saturated with Phe-Pro-Arg-chlormethylketone) |  |  |  | The active site blocked thrombin (FPR-TH) had no effect on APTT prolonged with either DTIs or heparin. | The active site blocked thrombin (FPR-TH) had no effect on APTT prolonged with either DTIs or heparin. | 
5 | human thrombin mutant W215A/E217A |  |  |  | The addition of W215A/E217A to plasma shifted APTT values toward normal ranges. | The addition of W215A/E217A to plasma shifted APTT values toward normal ranges. | TEG reaction time and amplitude in lepirudin-treated whole blood [2]: With addition of W215A/E217A (5 µg/ml), both reaction time and amplitude variables were reversed to normal for all DTIs; onset (latency) of thrombin generation, Thrombinoscope, lepirudin-treated plasma [2]: W215A/E217A was effective in shortening prolonged latency of thrombin generation.; TEG reaction time and amplitude in bivalirudin-treated whole blood [3]: With addition of W215A/E217A (5 µg/ml), both reaction time and amplitude variables were reversed to normal for all DTIs; onset (latency) of thrombin generation, Thrombinoscope, bivalirudin-treated plasma [3]: W215A/E217A was effective in shortening prolonged latency of thrombin generation.
6 | lepirudin | minimally affected | prolonged the onset of thrombin generation, but not the peak level | 290 10^6 M^−1s^−1 |  |  | 
